# Paper PMC10829871
# Target: Recombinant human LILRB4 protein (ECD, hFc Tag) (human) (UniProt Q8NHJ6)
# Test: BLI
# Chain of UniProt Q8NHJ6 (Q8NHJ6 22-259): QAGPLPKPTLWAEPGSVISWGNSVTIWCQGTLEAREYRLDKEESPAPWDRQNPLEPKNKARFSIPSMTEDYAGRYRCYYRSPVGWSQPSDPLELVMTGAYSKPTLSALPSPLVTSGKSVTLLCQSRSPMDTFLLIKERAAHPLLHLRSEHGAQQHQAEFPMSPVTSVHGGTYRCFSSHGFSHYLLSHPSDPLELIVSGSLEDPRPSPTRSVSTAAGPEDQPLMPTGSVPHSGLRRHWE
substance,measurement,value
Recombinant human Galectin 8/LGALS8 protein (from UniProt O00214 1-317) (natural protein),Kd,1020 nM
same,koff,0.131 s⁻¹
